Results reported in publication PMC4987296 (The Journal of Cell Biology, 2016).
Blank lines part the entries; values can stand above or below the binder they belong to.

Legend:
GFP-VPS26A (p.K297X) = GFP-VPS26A (p.K297X) (human, UniProt O75436 1-296); assay: affinity purification with mass spectrometry
[1] = molecular target: SNX27 PDZ domain in the presence of VPS26A (p.M112V) (rat | human, UniProt Q8K4V4;O75436, p.M112V); assay: ITC
[2] = molecular target: SNX27 PDZ domain in the presence of VPS26A (p.K93E) (rat | human, UniProt Q8K4V4;O75436, p.K93E); assay: ITC
SNX27 PDZ domain in the presence of VPS26A (p.K93E), sequence (O75436 whole entry K93E, the tested form may be a part, one chain of several): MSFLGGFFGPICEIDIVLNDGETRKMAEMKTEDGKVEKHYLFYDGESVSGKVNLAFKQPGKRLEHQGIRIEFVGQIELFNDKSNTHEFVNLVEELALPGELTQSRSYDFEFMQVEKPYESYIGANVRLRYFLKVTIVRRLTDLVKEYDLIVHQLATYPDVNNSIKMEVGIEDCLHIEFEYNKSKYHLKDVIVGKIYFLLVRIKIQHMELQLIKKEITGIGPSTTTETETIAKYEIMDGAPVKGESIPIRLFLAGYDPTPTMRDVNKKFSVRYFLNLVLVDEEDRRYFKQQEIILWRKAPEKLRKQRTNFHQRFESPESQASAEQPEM

GFP-VPS26A (p.K297X), sequence (O75436 1-296): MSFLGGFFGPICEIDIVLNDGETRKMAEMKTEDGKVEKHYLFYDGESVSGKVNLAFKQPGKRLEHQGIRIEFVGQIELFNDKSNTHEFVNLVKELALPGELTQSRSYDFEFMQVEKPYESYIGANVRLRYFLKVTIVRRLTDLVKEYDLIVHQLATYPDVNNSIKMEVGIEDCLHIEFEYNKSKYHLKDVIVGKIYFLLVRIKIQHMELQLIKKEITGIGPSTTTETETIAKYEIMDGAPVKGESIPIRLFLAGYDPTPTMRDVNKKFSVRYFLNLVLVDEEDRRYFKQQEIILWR
SNX27 PDZ domain in the presence of VPS26A (p.M112V), sequence (O75436 whole entry M112V, the tested form may be a part, one chain of several): as the sequence (O75436 whole entry K93E, the tested form may be a part, one chain of several) above, with E93K, M112V counted along it

- SILAC enrichment ratio, mutant over wild-type GFP-VPS26A (GFP-VPS26A (p.K297X)): 6.55
B1: DENND4C (natural protein)
chain: not shown

- fold enhancement of binding over SNX27 PDZ domain alone [1]: > 10 fold
- fold enhancement of binding over SNX27 PDZ domain alone [2]: > 10 fold
Binder: PPESESKV [Kir3.3 peptide (PPESESKV)]

- SILAC enrichment ratio, mutant over wild-type GFP-VPS26A (GFP-VPS26A (p.K297X)): 17.2
B2: PKD2 (natural protein)
chain: MVNSSRVQPQQPGDAKRPPAPRAPDPGRLMAGCAAVGASLAAPGGLCEQRGLEIEMQRIRQAAARDPPAGAAASPSPPLSSCSRQAWSRDNPGFEAEEEEEEVEGEEGGMVVEMDVEWRPGSRRSAASSAVSSVGARSRGLGGYHGAGHPSGRRRRREDQGPPCPSPVGGGDPLHRHLPLEGQPPRVAWAERLVRGLRGLWGTRLMEESSTNREKYLKSVLRELVTYLLFLIVLCILTYGMMSSNVYYYTRMMSQLFLDTPVSKTEKTNFKTLSSMEDFWKFTEGSLLDGLYWKMQPSNQTEADNRSFIFYENLLLGVPRIRQLRVRNGSCSIPQDLRDEIKECYDVYSVSSEDRAPFGPRNGTAWIYTSEKDLNGSSHWGIIATYSGAGYYLDLSRTREETAAQVASLKKNVWLDRGTRATFIDFSVYNANINLFCVVRLLVEFPATGGVIPSWQFQPLKLIRYVTTFDFFLAACEIIFCFFIFYYVVEEILEIRIHKLHYFRSFWNCLDVVIVVLSVVAIGINIYRTSNVEVLLQFLEDQNTFPNFEHLAYWQIQFNNIAAVTVFFVWIKLFKFINFNRTMSQLSTTMSRCAKDLFGFAIMFFIIFLAYAQLAYLVFGTQVDDFSTFQECIFTQFRIILGDINFAEIEEANRVLGPIYFTTFVFFMFFILLNMFLAIINDTYSEVKSDLAQQKAEMELSDLIRKGYHKALVKLKLKKNTVDDISESLRQGGGKLNFDELRQDLKGKGHTDAEIEAIFTKYDQDGDQELTEHEHQQMRDDLEKEREDLDLDHSSLPRPMSSRSFPRSLDDSEEDDDEDSGHSSRRRGSISSGVSYEEFQVLVRRVDRMEHSIGSIVSKIDAVIVKLEIMERAKLKRREVLGRLLDGVAEDERLGRDSEIHREQMERLVREELERWESDDAASQISHGLGTPVGLNGQPRPRSSRPSSSQSTEGMEGAGGNGSSNVHV
